Test results reported in the nanobody polyreactivity screen of Harvey et al. (2022).

Assay: yeast display, Sf9 membrane polyspecificity reagent, FACS + sequencing; frameworks hold sequencing errors
Procedure, shortened: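 Polyreactivity labels are assigned by the sorting gate from which each nanobody was recovered. The gates were low and high (top ~1%), set on anti-HA fluorescence for expression and streptavidin fluorescence for reagent binding. Before sorting, galactose-induced (36–48 hours) yeast display cells were stained for 1 hour at 4 °C with 10% biotinylated, detergent-solubilized Sf9 membrane reagent.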

Sequence	polyreactivity (PSR sort gate)
QVQLVESGGGLVQAGGSLRLSCAASGSIFPRNAMGWYRQAPGKERELVARINSGGTTKYADSVKGRFTISRDNAKYTVFLQMNSLKPEDTAGYYCNADTYILDPLRKSYGYDYWGQGTQVTVSS	low polyreactivity
QVQLVESGGGLVQAGGSLRLSCAASGRIFPAYVMGWYRQAHGKERELVATIDNGGGTYYADSVKGRFTISRDNAKNTVYLQMNSLKPEDTAVYYCARDRHVRWGLKMDYSGQGTQVTVSS	low polyreactivity
QVQLVESGGGLVQAGGSLRLSCAASGITFYSYAMGWYRQAPGKERELVAGISGGGGTSYADSVKGRFTISRDNAKNTVYLQMNSLKPEDTAVYYCNVYAYTYYYWAFYTEDYWGQGTQVTVSS	high polyreactivity
QVQLVESGGGLVQAGGRLRLSCAASGSIFSIYPMGWYRQAPGKERDFVASITVTDGSTYYADSVKGRFTISRDNAKNTVYLQMNSLKPEDTADYYCNADGWYALYEWLAVSGYYWGQGTQVTVSS	low polyreactivity
QVQLVESGGGLVQAGGSLRLSCAASGRIFQGYAMGWYRKAPGKERELVAAIRSGSGSTYYADSVKGRFTISRDNAKNTVYLQMNSLKPEDTAVYYCAADRYYWGQGTQVTVSS	low polyreactivity
QVQLVESGGGLVQAGGSLRLSCAASGSTFTPNAMVWYRQAPGKERELVAAINWSDSSTYYADSVKGRFTISRDNAKNTVYLQMNSLKPEDTAVYYCAAAAQYGQLQVPVYYWGQGTQVTVSS	low polyreactivity
QVQLVESGGGLVQAGGSLRLSCAASGFTFSYYVMGLYRQAPGKERELVAAITSGGSTYYADSVKGRFTISRDNAKNTVYLQMNSLKPEDTAVYYCNARTYSRVTRQTYRYRPYDYWGQGTQVTVSS	high polyreactivity
QVQLQESAGGLEQAGGSLRLSCAASAYISDIGTKGWYRQAPRKEREFVATIVVGSTTNYADSVKGRFTISRDNAKNTVYLQPESGRYRGVFLRGWLLPVGKFTYWGQGTQETVSS	low polyreactivity
QVQLVESVGGLVQAGGSLPLSCAASGLTFPSYAMGWYRQAPGKERELVAAISASGSSTYYADSVKGRFTISRDNAKNTVYLQMNSLKPEDTAVYYCNARKPATVSRYGYWGQGTQVTVSS	high polyreactivity
QVQLVESGGGLVQAGGSLRLRCAASGSIFKSNAMGWYRQAPGKERELVAAISNGGITNYADSVKGRFTISRDNAKNTVYLQMNSLKPEDTAVYYCATSDVREIWVDYCGQGTQVTVSS	low polyreactivity
QVQLVESGGGLVQAGGSLRLSCAASGSILSAYAMGWYRQAPGKERELVAAISWSGGSTYYADSVKGRFTISRDNAKNTVYLQMNSLKPEDTAVYYCATVNKKWRRYDYWGQGTQVTVSS	high polyreactivity
QVQLVESGGGLVQAGGSIRLSCAASGSTFRVYAMGWYRQAPGKERELVAAISSSGGITYYADSVKGRFTISRDNAKNTVYLQMNSLKPEDTAVYYCAKGTVIHVLYDYWGQGTQVTVSS	low polyreactivity
QVQLVESGGGLVQAGGSLRLSCAASGRTFAAYAMGWYRQAPGKERELGAAISSSSGNTYYADSVKGRFTISRDNAKNTVYLQMYSLKPEDTAVYYCNAQRRFNANYWYDYWGQGTQVTVAS	high polyreactivity
QVQLVESGGGLVQAGGSLRLSCAASGSIFTRYAMGWYRQAPGKERELVAAITKSGSRTYYADSVKGRSTISRDNAKNTVYLQMNSLKPEDTAVYYCATLQGDSSSQYDYWGQGTQVTVSS	high polyreactivity
QVQLVESGGGLVQAGVSLRLSCAASGNTFKYYPMGWYRQAPGKEWELVAGITGTGGRTNYADSVKGRFTISRDNAKNTVYLQMTSLKPEDTAVYYFAADYWWYTGYDYWGQGTQVTVSS	high polyreactivity
QVQLEESGGRLVQAGASLRLSCAASGSIFEDYVMGWYRHAPGKERELVADITSGGTTYYADSVKGRFTISRDYAKNTVYLQMNRLKPEATAVYYCNAYLIVDYGDETPYASLHDYWGQGTQVTVSS	low polyreactivity
QVQLVESGGGLVQAGGSLRISCAPSGSTFYYNAIGWSRQAPGKERELVARISRSGGSTYADSVKGRFTISRDNAKNTVYLQMNSLKPEDTAVYYCNADAYGTPEFTSYAVRYDYWGQGTQVTVSS	low polyreactivity
QVQLVESGGGIVQAGGSLRLSCAASGSTFLYYAMGWSRQAPGKEREFVAAISISGGSTYYADSVKGRFTISRDNAKNTVYLQMNSLKPEDTAVYYCAAEVGIVDYDYWGQGTQVTVSS	low polyreactivity
QVQLVESGGGLVQAGGSLRLSCAASGRTFNHYAMGWYSQAPGKVRELVAGITISGGSTYYADSVKGRFTISRDNAKNTVYLQMNSLKPEDTPVYYCKAVYEYYRQSKGNMDYWGQGTQGTVSS	low polyreactivity
QVQLVESGGGLVQAGGSLRLSCAASGFTLYPYGMGWYRQAAGKERELVASISSRVGRTYYADSVKGRFTISRDNAKNTVYLQMNSLKPEDTAVYYCAASRLVRYQSRYASWGQGTQVTVSS	high polyreactivity
QVQLVESGGGLVQAGGSLRLSCAASGFIFYLYTMGWYRQAPGTEMEVVAAITQSGTRTYYADSVKGRFTISRDNAKNTVYLQMNSLKPVDTAVYYCAAEWGSSYRWGMDYWGQGTQVTVSS	high polyreactivity
QVQLVESGGGLVQAGGSLRLSCAASGSTFVKYTMGWYRPAPGKERELVAAIRRRGGSTYYADSVKGRFTISRDNAKNTVYLQMNSLKPEDTAVYYCATAGQGAFWGQGTQVTVSS	high polyreactivity

Sequence	polyreactivity (PSR sort gate)
QVQLVESGGGLVQAGGSLRLSCAASGRTLVYYAMGWYRQAPGKERELVAAITSVGSTNYADSVKGRFTISRDNAKNTVYLQMNSLKPEDTAVYYCAVRRVVARYDHWGQGTQVTVSS	low polyreactivity
QVQLVESGGGLVQAGGSLRLSCAASGFTFGSYAKGWYRQAPGKERELVAAIRASGGRTYYADSVKGRFTISRDNAKNTVFLQMNSLKPEDTAVYYCAADTGGNPKYDYWGQGTQVTVSS	high polyreactivity
QVQLVESGGGLVQAGGSLRLSCAASGRIFSIYAMGWYRQAPGKERELVASINSGDSTYYADSVKGRFTISRDNAKNTVYLQMNSLKPEDTAVYYCAATLVTVPLYRFDYWGQGTQVTVSS	low polyreactivity
QVQLVESGGGLVQAGGSLRLSCAASGFIFRWYAMGWSRQAPGKERELVAAISSGGSTYYADSVKGRFTISRDNAKNTVYLQMNSLKPEDTAVYYCAVRRYSEGDYWGQGTQVTVSS	high polyreactivity
QVQLVESGGGLVQAGGSLRLSCAASGITFFRYTMGWYRQAPGKEREFVAAINIRGTRTYYADSVKGRFTISRDNAKNTVYLQMNSLKPEDTAVYYCAAGYAYRYSGLSYDVDYWGQGTQVTVSS	high polyreactivity
QVQLVESGGGLVQAGGSLRLSCAASGSIFVGYAMGWYRQAPGKERELVAAISRSGGTTYYADSVKGRFTISRDTAKNTVYLQMNSLKPEDTAVYYCAAERWAYYRSGLWWPYDYWGQGTQVTVSS	high polyreactivity
QVQFVESGGGLVQAGGSLRLSCAASGSTFQGNAMGWYRQAPGKERELVAAISRSGGRTYYADSVKGRFTISRDNAKNTVYLQMNSLKPEDTAVYYCAADAYTGDIPYWWPWNNEYDYWGQGTQVTVSS	low polyreactivity
QVQLVESGGGLVQAGGSLRLSCAASGSTFSRYAMGWYRQAPGKERELVAAISTRGGSTRYADSVKGRFTISRDNAKNTVYLQMNSLKPEDTAVYYCAALGQGRTSATSFVDYEYWGQGTQVTVSS	high polyreactivity
QVQLVESGGGLVQAGGSLRLSCAASGGTFPLYAMGWYRPAPGKERELVAAIRWSGGRTYYADSVKGRFTISRDNAKNTVYLQMNSLKPEDTAVYYCAADYDDGWGYDYWGQGTQVTVSS	high polyreactivity
QVQLVESGGGLVQAGGSLRLSCAASGSIFRSYAMGWYRQAPGKERELVAAISSSSGSTYYADSVKGRFTISRDNAKNTVYLQMNSLKPEDTAVYYCAARSRIGNNGYEYWGQGTQVTVSS	low polyreactivity
QVQLVESGGGLVQAGGSLRLSCAASGRTFSSYAMGWYRPAPGKERELVAAITKRAGNTYYADSVKGRFTISRDNAKNTVYLQMNSLKPEDTAVYYCAAGWERFRNYNYWGQGTQVTVSS	high polyreactivity
QVQLVESGGGLVQAGGSLRLTCAASGLTFDSNVMGWYREAPGKERELVAANTYSGRTYYADSEKGRFTISRDNAKNTVYLQMNSLKPEDTAVYYCAARNLAYTRKGYYYWGQGTQVTVSS	high polyreactivity
QVQLVDSGGGLVQAGGSLRLSCAASGRIFSRYAMGWYRQAPGKERELVASISYSGGSTNYADSVKGRFTISRDNAKNTFYLQMNSLKPEDTAVYYCAAGQYSYRRRYNYWGQGTQVTVSS	high polyreactivity
QVQLVESGVGLVQAGGSLRLSCAASGRPFVAYAMGWYRQAPGTERELVARISSGGGTYADSVKGRFTISRDNAKNTVYLQMNSLKPEDTAVYYCATSLQRQFDYWGQGTQVTVSS	low polyreactivity
QVQLVESGGGLVQAGGSLRLSCAASGFTFVRYAMGWYRQAPGKERELVAAISSSGSSTYYADSVKGRFTISRDPVKNTVYLQMNSLIPEDTAVYYFNARAGGGEDYWGQGTQVTVSS	low polyreactivity
QVQLVESGGGLGQAGGRLRLTCAASGFTFRPYDMGWYRQAPGKERELVAVIIGGDSTNYADSVQGRFTISRDNAKNTVYLQMNSLKPEDTAVYYCAADYIDRVGWMDYWGQGTQVTVSS	low polyreactivity
QVQLVESGGGLVQAGGSLRLSCAASGSLFEINAMGWYRPAPGKERELVAAITGSGGSTHYADSVKGRFTISRDNAKNTVYLQMNSLKPEDTAVYYCSAVPRYQYGYWGQGTQVTVSS	low polyreactivity
QVQLVESGGGLVQAGGSLRLSCAASGSIFDYYTMGWYRQAPGKEREFVAGISDSGGSTNYADSVKGRFTISRDNAKNTVYLQMNSLKPEDTAVYYCNAEYVGWFYKYDYWGQGTQVTVSS	high polyreactivity
QVQLVESGGGLVQAGGSLRLSCAASGSTFSNNARGWYRQAPGKERELVAAISRSGGSTYYADSVKGRFTISRDNAKNTVYLQMNSLKPEDTAVYYCAAYAPYYRTMDYWGQGTQVTVSS	high polyreactivity
QVQLVESGGGLVQAGGSLRLSCAASGLTFYYYAMGWYRQAPGKEREFVAAITRSGTNTYYADSVKGRFTISRDTAKNTVYLQMNSLKPEDTAVYYCAKTGYSFRVFRKYDWGQGTQVTVSS	high polyreactivity
QVQLVESGGGLVQAGGSRRLSCAASGITFSRYAMGWYRQAPGKERELVAAITSSGGSTYYADSVKGRFTISRDNAKNTVYLQMNSLKPEDTAVYYCAATSYYTREQYYYWGQGTQVTVSS	high polyreactivity
